Assay results: paper PMC5552345 (PLoS Pathogens, 2017)

T1: (NANP)6 peptide (Plasmodium falciparum CSP repeat, …)
T1 construct: printed as (NANP)6, written out here; a short segment of the antigenic NANP-repeat region of P. falciparum CSP; also called synthetic peptide antigen (NANP)6; source: synthetic peptide
T1 chain: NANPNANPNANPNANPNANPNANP

T2: (NANP)9 peptide (Plasmodium falciparum CSP repeat, …)
T2 construct: printed as (NANP)9, written out here; NANP repeat of P. falciparum CSP
T2 chain: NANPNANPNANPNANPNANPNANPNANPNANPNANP

B1: 2A10 antigen-binding fragment (FAB) (Fab, V domains shown)
VH: QIQLVQSGPELKKPGETVKISCKASGYTFTNYGINWVKQAPGKGLKWMGWINTITEEPTFAEEFTGRFAFSLETSASTAYLQINNLKNEDTATYFCARGSEFGRLVYWGQGASVTVSS
VL: DIQMTQTTSSLSASLGDRVTISCSASQGISNYLNWYQQKPDGTVKLLIFYTSTLYSGVPSRFSGSGSGTDYSLTISNLEPEDIATYYCQQYSRFPYVFGGGTKLEIK
notes: heavy chain part of the 2A10 FAB; as the heavy chain of m1; light chain of the 2A10 FAB; as the light chain of m1; also called 2A10 FAB; 2A10 FAB fragment; source: purified
B2: 2A10 gAb with light chain T117V (antibody, V domains shown)
VH: QIQLVQSGPELKKPGETVKISCKASGYTFTNYGMNWVKQAPGKGLKWMGWINTNTGEPTYAEEFKGRFAFSLETSASTAYLQINNLKNEDTATYFCARGSEFGRLDYWGQGASVTVSS
VL: DIQMTQTTSSLSASLGDRVTISCSASQGISNYLNWYQQKPDGTVKLLIYYTSSLHSGVPSRFSGSGSGTDYSLTISNLEPEDIATYYCQQYSKLPYVFGGGTKLEIK
notes: as the heavy chain of m17 (gHC); as the light chain of m17 (gLC); source: HEK293T cells, expressed
B3: 2A10 gAb with light chain H68Y (antibody, V domains shown)
VH: QIQLVQSGPELKKPGETVKISCKASGYTFTNYGMNWVKQAPGKGLKWMGWINTNTGEPTYAEEFKGRFAFSLETSASTAYLQINNLKNEDTATYFCARGSEFGRLDYWGQGASVTVSS
VL: DIQMTQTTSSLSASLGDRVTISCSASQGISNYLNWYQQKPDGTVKLLIYYTSSLYSGVPSRFSGSGSGTDYSLTISNLEPEDIATYYCQQYSKLPYTFGGGTKLEIK
notes: as for B2
B4: predicted germline precursor to the 2A10 antibody (2A10 gAb) (antibody, V domains shown)
VH: QIQLVQSGPELKKPGETVKISCKASGYTFTNYGMNWVKQAPGKGLKWMGWINTNTGEPTYAEEFKGRFAFSLETSASTAYLQINNLKNEDTATYFCARGSEFGRLDYWGQGASVTVSS
VL: DIQMTQTTSSLSASLGDRVTISCSASQGISNYLNWYQQKPDGTVKLLIYYTSSLHSGVPSRFSGSGSGTDYSLTISNLEPEDIATYYCQQYSKLPYTFGGGTKLEIK
notes: predicted germline heavy chain (gHC) of 2A10 by V-quest; the 2A10 heavy chain carries 6 mutations against it; predicted germline light chain (gLC) of 2A10 by V-quest; the 2A10 light chain carries 7 mutations against it; also called gHC + gLC; source: HEK293T cells, expressed
B5: hybrid antibody mLC + gHC with heavy chain T67F (antibody, V domains shown)
VH: QIQLVQSGPELKKPGETVKISCKASGYTFTNYGMNWVKQAPGKGLKWMGWINTNTGEPTFAEEFKGRFAFSLETSASTAYLQINNLKNEDTATYFCARGSEFGRLDYWGQGASVTVSS
VL: DIQMTQTTSSLSASLGDRVTISCSASQGISNYLNWYQQKPDGTVKLLIFYTSTLYSGVPSRFSGSGSGTDYSLTISNLEPEDIATYYCQQYSRFPYVFGGGTKLEIK
notes: as the heavy chain of m17 (gHC); as the light chain of m7; source: HEK293T cells, expressed
B6: recombinant antibody corresponding to the 2A10 mAb (antibody, V domains shown)
VH: QIQLVQSGPELKKPGETVKISCKASGYTFTNYGINWVKQAPGKGLKWMGWINTITEEPTFAEEFTGRFAFSLETSASTAYLQINNLKNEDTATYFCARGSEFGRLVYWGQGASVTVSS
VL: DIQMTQTTSSLSASLGDRVTISCSASQGISNYLNWYQQKPDGTVKLLIFYTSTLYSGVPSRFSGSGSGTDYSLTISNLEPEDIATYYCQQYSRFPYVFGGGTKLEIK
notes: 2A10 heavy chain (mHC), as the heavy chain of m1; FAB part in the deposited structures; 2A10 light chain (mLC), as the light chain of m1; in the deposited structures; also called mHC + mLC; source: HEK293T cells, expressed
B7: 2A10 gAb with light chain L114F (antibody, V domains shown)
VH: QIQLVQSGPELKKPGETVKISCKASGYTFTNYGMNWVKQAPGKGLKWMGWINTNTGEPTYAEEFKGRFAFSLETSASTAYLQINNLKNEDTATYFCARGSEFGRLDYWGQGASVTVSS
VL: DIQMTQTTSSLSASLGDRVTISCSASQGISNYLNWYQQKPDGTVKLLIYYTSSLHSGVPSRFSGSGSGTDYSLTISNLEPEDIATYYCQQYSKFPYTFGGGTKLEIK
notes: as for B2
B8: hybrid antibody mLC + gHC with heavy chain N59I (antibody, V domains shown)
VH: QIQLVQSGPELKKPGETVKISCKASGYTFTNYGMNWVKQAPGKGLKWMGWINTITGEPTYAEEFKGRFAFSLETSASTAYLQINNLKNEDTATYFCARGSEFGRLDYWGQGASVTVSS
VL: DIQMTQTTSSLSASLGDRVTISCSASQGISNYLNWYQQKPDGTVKLLIFYTSTLYSGVPSRFSGSGSGTDYSLTISNLEPEDIATYYCQQYSRFPYVFGGGTKLEIK
notes: as for B5
B9: hybrid antibody: 2A10 light chain (mLC) paired with germline heavy chain (gHC) (antibody, V domains shown)
VH: QIQLVQSGPELKKPGETVKISCKASGYTFTNYGMNWVKQAPGKGLKWMGWINTNTGEPTYAEEFKGRFAFSLETSASTAYLQINNLKNEDTATYFCARGSEFGRLDYWGQGASVTVSS
VL: DIQMTQTTSSLSASLGDRVTISCSASQGISNYLNWYQQKPDGTVKLLIFYTSTLYSGVPSRFSGSGSGTDYSLTISNLEPEDIATYYCQQYSRFPYVFGGGTKLEIK
notes: as the heavy chain of m17 (gHC); as the light chain of m7; also called mLC + gHC; source: HEK293T cells, expressed
B10: hybrid antibody mLC + gHC with heavy chain M39I (antibody, V domains shown)
VH: QIQLVQSGPELKKPGETVKISCKASGYTFTNYGINWVKQAPGKGLKWMGWINTNTGEPTYAEEFKGRFAFSLETSASTAYLQINNLKNEDTATYFCARGSEFGRLDYWGQGASVTVSS
VL: DIQMTQTTSSLSASLGDRVTISCSASQGISNYLNWYQQKPDGTVKLLIFYTSTLYSGVPSRFSGSGSGTDYSLTISNLEPEDIATYYCQQYSRFPYVFGGGTKLEIK
notes: as for B5
B11: 2A10 gAb with light chain L114F and T117V (antibody, V domains shown)
VH: QIQLVQSGPELKKPGETVKISCKASGYTFTNYGMNWVKQAPGKGLKWMGWINTNTGEPTYAEEFKGRFAFSLETSASTAYLQINNLKNEDTATYFCARGSEFGRLDYWGQGASVTVSS
VL: DIQMTQTTSSLSASLGDRVTISCSASQGISNYLNWYQQKPDGTVKLLIYYTSSLHSGVPSRFSGSGSGTDYSLTISNLEPEDIATYYCQQYSKFPYVFGGGTKLEIK
notes: as the heavy chain of m17 (gHC); as the light chain of m17 (gLC); also called L114F and T117V introduced simultaneously; source: HEK293T cells, expressed

Tests used:
(NANP)6 peptide = biological target: T1, (NANP)6 peptide; assay: ITC; 25°C; titration of 2A10 FAB or complete 2A10 with antigen; independent binding sites model; single titration each; settings: both partners purified
(NANP)9 peptide = biological target: T2, (NANP)9 peptide; assay: ELISA; recombinant 2A10, germline precursor, hybrids and their point mutants tested on the (NANP)9 peptide; details in S1 Methods

Binder	binding result ((NANP)9 peptide)	also measured
B1		Ka ((NANP)6 peptide): 2.37e+06 M⁻¹; Kd ((NANP)6 peptide): 420 nM; dH ((NANP)6 peptide): -113 kJ/mol complex; stoichiometry N ((NANP)6 peptide): 2.16 FAB per Ag
B2	binds	
B3	binds	
B4	binds	
B5	binds	
B6	binds	
B7	binds	
B8	binds	
B9	binds	
B10	binds	
B11	binds	
